PMC13274938

Biological target: Q23-APEX-GT2 trimer (Q23-APEX-GT1-T132R-S158T) (HIV-1 (Q23.17))
Assay: cryo-EM structure

B1: CH70-Apex2.01 Fab (Fab, V domains shown)
VH: QVQLQESGPGLVKPSETLSLTCAVSGGSISDDYYWTWIRQPPGKGLEWIGYIYGDGGDTKYNPSLKNRVTISIDTSKNHFSLKVNSMTGADTAVYYCAREGRGQFWYDEDYGQFYVPGGLDSWGQGVVVTVSS
VL: DIQMTQTPLSLSVSPGEPASISCRSSQSLLHTDGYDYLDWYLQKPGQSPQLLIYGGSDRPSGVPDRFSGSGSGTDFTLKISRVEAEDVGVYYCMQHKALPRTFGQGTKVEIK
For B1, which stoichiometry N (Fab per trimer) is on record?
Its stoichiometry N (Fab per trimer) is 1.
